The target in the test is human TNFalpha (human) (UniProt P01375). The test is described as follows: SPR (BiaCore), antibody purified by protein A and SEC.
UniProt P01375, sequence (P01375 77-233 limits assumed): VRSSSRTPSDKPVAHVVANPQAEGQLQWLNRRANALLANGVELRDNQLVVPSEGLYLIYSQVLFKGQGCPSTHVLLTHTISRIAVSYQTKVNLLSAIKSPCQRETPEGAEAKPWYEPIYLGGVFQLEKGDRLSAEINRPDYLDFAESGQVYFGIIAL

In turn, “D2E7 antibody product secreted from sORF construct pTT3-pfu lon HL (-)” gave a dissociation constant (Kd) of 0.0729 nM, an off-rate (koff) of 0.00011 s⁻¹ and an on-rate constant (kon) of 1.51e+06 M⁻¹ s⁻¹.

The record behind these values is US20110150861A1.
